In US9198909B1, “Materials and methods for inhibiting mamalian S-nitrosoglutathione reductase” (Indiana University Research and Technology Corporation, priority 2007, dated 2015):

Substrate: CCCCCCCCO
Assay: GSNOR substrate kinetics with octanol
Assay type: biochemical, human
Settings: other: octanol as GSNOR substrate; pH 10.0
Experimental: GSNOR is an alcohol dehydrogenases and like other members of ADH family, is capable of oxidizing and reducing primary alcohols and aldehydes with the help of a molecule of NAD(H). Octanol was chosen as the substrate in the initial screening assay as it is bulky like GSNO, but has 200-fold higher KM value (1 mM) and a kcat value (200 min-1) that is more than 2 order of magnitude lower than that of GSNO. This allows the initial velocity conditions to prevail for a period up to 10 min (data not shown) and it enables conducting a large number of concurrent assays in a384 well plate format. The pH of the assay was adjusted to pH 10 in order to get significant rate of oxidation of octanol in the absence of compounds. The screening for GSNOR inhibitors was performed in the presence of saturating concentration of NAD^+ and an un-saturating concentration of octanol thereby increase the probability of identifying compounds that bind, only or primarily in the GSNO binding site of GSNOR. This was deemed desirable as there are many dehydrogenases inside the cells and compounds binding in the coenzyme binding site are more likely to be nonspecific inhibitors of GSNOR, than compounds that bind primarily to the form of GSNOR that binds GSNO.

B1: GSNOR (Homo sapiens) (protein)
chain: MANEVIKCKAAVAWEAGKPLSIEEIEVAPPKAHEVRIKIIATAVCHTDAYTLSGADPEGCFPVILGHEGAGIVESVGEGVTKLKAGDTVIPLYIPQCGECKFCLNPKTNLCQKIRVTQGKGLMPDGTSRFTCKGKTILHYMGTSTFSEYTVVADISVAKIDPLAPLDKVCLLGCGISTGYGAAVNTAKLEPGSVCAVFGLGGVGLAVIMGCKVAGASRIIGVDINKDKFARAKEFGATECINPQDFSKPIQEVLIEMTDGGVDYSFECIGNVKVMRAALEACHKGWGVSVVVGVAASGEEIATRPFQLVTGRTWKGTAFGGWKSVESVPKLVSEYMSKKIKVDEFVTHNLSFDEINKAFELMHSGKSIRTVVKI
B1 was tested, and the Km was 1000 µM and the kcat was 3.33 s⁻¹.
